Measurements as given in IntAct's records for PubMed 23007647.

B1: Protein HEG homolog 1 (Homo sapiens), Q9ULI3 (parent)
chain: MASPRASRWPPPLLLLLLPLLLLPPAAPGTRDPPPSPARRALSLAPLAGAGLELQLERRPEREPPPTPPRERRGPATPGPSYRAPEPGAATQRGPSGRAPRGGSADAAWKHWPESNTEAHVENITFYQNQEDFSTVSSKEGVMVQTSGKSHAASDAPENLTLLAETADARGRSGSSSRTNFTILPVGYSLEIATALTSQSGNLASESLHLPSSSSEFDERIAAFQTKSGTASEMGTERAMGLSEEWTVHSQEATTSAWSPSFLPALEMGELTTPSRKRNSSGPDLSWLHFYRTAASSPLLDLSSSSESTEKLNNSTGLQSSSVSQTKTMHVATVFTDGGPRTLRSLTVSLGPVSKTEGFPKDSRIATTSSSVLLSPSAVESRRNSRVTGNPGDEEFIEPSTENEFGLTSLRWQNDSPTFGEHQLASSSEVQNGSPMSQTETVSRSVAPMRGGEITAHWLLTNSTTSADVTGSSASYPEGVNASVLTQFSDSTVQSGGSHTALGDRSYSESSSTSSSESLNSSAPRGERSIAGISYGQVRGTAIEQRTSSDHTDHTYLSSTFTKGERALLSITDNSSSSDIVESSTSYIKISNSSHSEYSSFFHAQTERSNISSYDGEYAQPSTESPVLHTSNLPSYTPTINMPNTSVVLDTDAEFVSDSSSSSSSSSSSSSSGPPLPLPSVSQSHHLFSSILPSTRASVHLLKSTSDASTPWSSSPSPLPVSLTTSTSAPLSVSQTTLPQSSSTPVLPRARETPVTSFQTSTMTSFMTMLHSSQTADLKSQSTPHQEKVITESKSPSLVSLPTESTKAVTTNSPLPPSLTESSTEQTLPATSTNLAQMSPTFTTTILKTSQPLMTTPGTLSSTASLVTGPIAVQTTAGKQLSLTHPEILVPQISTEGGISTERNRVIVDATTGLIPLTSVPTSAKEMTTKLGVTAEYSPASRSLGTSPSPQTTVVSTAEDLAPKSATFAVQSSTQSPTTVSSSASVNSCAVNPCLHNGECVADNTSRGYHCRCPPSWQGDDCSVDVNECLSNPCPSTAMCNNTQGSFICKCPVGYQLEKGICNLVRTFVTEFKLKRTFLNTTVEKHSDLQEVENEITKTLNMCFSALPSYIRSTVHASRESNAVVISLQTTFSLASNVTLFDLADRMQKCVNSCKSSAEVCQLLGSQRRIFRAGSLCKRKSPECDKDTSICTDLDGVALCQCKSGYFQFNKMDHSCRACEDGYRLENETCMSCPFGLGGLNCGNPYQLITVVIAAAGGGLLLILGIALIVTCCRKNKNDISKLIFKSGDFQMSPYAEYPKNPRSQEWGREAIEMHENGSTKNLLQMTDVYYSPTSVRNPELERNGLYPAYTGLPGSRHSCIFPGQYNPSFISDESRRRDYF
B2: Krev interaction trapped protein 1 (Homo sapiens), O00522 (parent)
chain: MGNPENIEDAYVAVIRPKNTASLNSREYRAKSYEILLHEVPIEGQKKKRKKVLLETKLQGNSEITQGILDYVVETTKPISPANQGIRGKRVVLMKKFPLDGEKMGREASLFIVPSVVKDNTKYTYTPGCPIFYCLQDIMRVCSESSTHFATLTARMLIALDKWLDERHAQSHFIPALFRPSPLERIKTNVINPAYATESGQTENSLHMGYSALEIKSKMLALEKADTCIYNPLFGSDLQYTNRVDKVVINPYFGLGAPDYSKIQIPKQEKWQRSMSSVTEDKERQWVDDFPLHRSACEGDSELLSRLLSERFSVNQLDSDHWAPIHYACWYGKVEATRILLEKGKCNPNLLNGQLSSPLHFAAGGGHAEIVQILLNHPETDRHITDQQGRSPLNICEENKQNNWEEAAKLLKEAINKPYEKVRIYRMDGSYRSVELKHGNNTTVQQIMEGMRLSQETQQYFTIWICSENLSLQLKPYHKPLQHVRDWPEILAELTNLDPQRETPQLFLRRDVRLPLEVEKQIEDPLAILILFDEARYNLLKGFYTAPDAKLITLASLLLQIVYGNYESKKHKQGFLNEENLKSIVPVTKLKSKAPHWTNRILHEYKNLSTSEGVSKEMHHLQRMFLQNCWEIPTYGAAFFTGQIFTKASPSNHKVIPVYVGVNIKGLHLLNMETKALLISLKYGCFMWQLGDTDTCFQIHSMENKMSFIVHTKQAGLVVKLLMKLNGQLMPTERNS

What was measured:
[1] = variants of: B1; settings: with krit1_human KRIT1, O00522
[2] = variants of: B2; settings: with rap1a_mouse Rap1a
heg1_human HEG1, Q9ULI3 = variants of: B2; settings: with heg1_human HEG1, Q9ULI3
ccm2_human CCM2, Q9BSQ5 = variants of: B2; settings: with ccm2_human CCM2, Q9BSQ5
Sequence of ccm2_human CCM2, Q9BSQ5 (Q9BSQ5 whole entry): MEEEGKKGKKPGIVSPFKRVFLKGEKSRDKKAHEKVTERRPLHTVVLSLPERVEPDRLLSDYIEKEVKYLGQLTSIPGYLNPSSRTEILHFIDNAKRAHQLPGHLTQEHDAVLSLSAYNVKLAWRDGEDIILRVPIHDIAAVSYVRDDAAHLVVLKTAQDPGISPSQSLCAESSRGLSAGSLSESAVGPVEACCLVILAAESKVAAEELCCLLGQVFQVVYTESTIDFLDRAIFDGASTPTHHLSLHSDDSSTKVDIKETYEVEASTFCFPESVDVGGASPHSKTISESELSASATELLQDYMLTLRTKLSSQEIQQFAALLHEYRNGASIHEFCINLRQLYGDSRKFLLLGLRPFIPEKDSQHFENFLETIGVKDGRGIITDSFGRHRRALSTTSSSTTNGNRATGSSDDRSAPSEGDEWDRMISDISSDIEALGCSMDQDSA

Row | effect of a mutation on the interaction [1] | effect of a mutation on the interaction [2] | effect of a mutation on the interaction (heg1_human HEG1, Q9ULI3) | effect of a mutation on the interaction (ccm2_human CCM2, Q9BSQ5) | Variant
1 | with no effect |  |  |  | N1367A;F1370A
2 |  | disrupting interaction strength |  |  | R452E
3 |  | with no effect | decreasing interaction strength | with no effect | L717A;L721A
